# Measurements published in the nanobody polyreactivity screen of Harvey et al. (2022).
# Assay: yeast display, Sf9 membrane polyspecificity reagent, FACS + sequencing; frameworks hold sequencing errors
# Outline: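 Sorting gates, low and high (top ~1%), were placed on anti-HA fluorescence to track expression and on streptavidin fluorescence to track reagent binding. A clone's polyreactivity label is taken from the gate it came out of. The reagent was 10% biotinylated, detergent-solubilized Sf9 membrane, applied for 1 hour at 4 °C to galactose-induced yeast display cells.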
row,Sequence,polyreactivity (PSR sort gate)
1,QVQLVESGGGLVQAGGSLRLSCAASGRIFTKNTMGWYRQAPGKERELVAAIRSRAGSTYYADSVKGRFTISRDNAKNTVYLQMNSLKPEDTAVYYCAVPWFRSVDFDYWGQGTQVTVSS,low polyreactivity
2,QVQLVESGGGLVQAGGSLRLSCAASGRIFTKYPMGRYRQATGKERELVAAITSGGRTYYADSVKGRFTISRDNAKNTVYLQMNSLKPEDTAVYFCAARYVQVVRKFGFRGQGTQVTVSS,high polyreactivity
3,QVQLVESGGGLVQAGGSLRLSCAASGRIFTLYDMGWYRQAPGKERELVAAISNSAGSTYYADSVKGRFTISRDNAKNTVYLQMNSLKPEDTAVYYCAAELWSWWGSRDYWGQGTQVTVSS,high polyreactivity
4,QVQLVESGGGLVQAGGSLRLSCAASGRIFTNNAMGWYRQAPGKERELVAAISKRGGSTYYADSVKGRFTISRDNAKNTVYLQMNSLKPEDTAVYYCNAREYIHWRGALGLFGSWGQGTQVTVSS,high polyreactivity
5,QVQLVESGGGLVQAGGSLRLSCAASGRIFTNNAMGWYRQAPGKERELVAAISRSGGRTYYADSVKGRFTISRDNAKNTVYLQMNSLKPEDTAVYYCAAVHLYYGYNSPFTMDYWGQGTQVTVSS,high polyreactivity
6,QVQLVESGGGLVQAGGSLRLSCAASGRIFTNNAMGWYRQEPGKERELVAAISRSGGRTYYADSVKGRFTISRDIAKNTVYLQMNSLKPEDTAVYYCAAVHLFYGYNSPFTMDYWGQGTQVTVSS,high polyreactivity
7,QVQLVESGGGLVQAGGSLRLSCAASGRIFTNYAMGWYRQAPGKERELVATINGGGITNYADSVKVRFTISRDNAKNTVYLQMNSLKPEDNAVYYCATDRLSYGYKPGYTFYYWEQGTQVTVSS,high polyreactivity
8,QVQLVESGGGLVQAGGSLRLSCAASGRIFTPYAMGWYRKAPGKERELGAVIRDGSTYYADSVKGRFTISRDNAKNTVYLQMNRLKPEDTAVYYCAAVNYYDQYGDYYWGQGTQVTVSS,low polyreactivity
9,QVQLVESGGGLVQAGGSLRLSCAASGRIFTQYAMGWYRQAPGKERELVAAISYGGGTTHYADSVKGRFTISRDNAKNTVYLQMNSLKPEDTAVYYCAADGGRQVYTQLYDYWGQGTQVTVSS,low polyreactivity
10,QVQLVESGGGLVQAGGSLRLSCAASGRIFTRNAMGWYRQAPGKEREFVAAISYRGGSTYYADSVKGRFTISRDYAKNTVYLQMNSLKPEDTAVYYCAAEPYIQWVYYGGNGRRYGYWGQGTQVTVSS,high polyreactivity
11,QVQLVESGGGLVQAGGSLRLSCAASGRIFTRNAMGWYRQAPGKERELVAAITSGGSTNYADSVKGRFTISRDNAKNTVYLQMNSLKPEDTAVYYCNAVYYPYRIWGRVRPSYGYWGQGTQVTVSS,high polyreactivity
12,QVQLVESGGGLVQAGGSLRLSCAASGRIFTRNTMGWYRQAPGKERELVAAITSRGGSTYYADSVKGRFTISRDNAKITVYLQMNSLKPEETAVYYCAADIPRYYYYWGQGTQVTVSS,high polyreactivity
13,QVQLVESGGGLVQAGGSLRLSCAASGRIFTRYAMGWYRQAPGKERELVAAINYRGSSTYYADSVKGRFTISRDNAKNTVYLQMNSLKPEDTAVYYCNTYGQTDTYWRYYYWGQGTQVTVSS,high polyreactivity
14,QVQLVESGGGLVQAGGSLRLSCAASGRIFTRYAMGWYRQAPGKERELVAAITGSGGSTYYADSVKGRFTISRDNAKNTVYLQMNSLKPEDTAVYYCNKVTGRNADRYGYWGQGTQVTVSS,high polyreactivity
15,QVQLVESGGGLVQAGGSLRLSCAASGRIFTRYAMGWYRQAPWKERELVAVITRSGGSTYYADSVKGRFTISRDNAKNTVYFKMNSLIPEDTAVYYCAVRPYELHRLADQPGGDDYWGQGTQVTVSS,low polyreactivity
16,QVQLVESGGGLVQAGGSLRLSCAASGRIFTSNTMGWYRQAPGKERELVAAITWRVGSTYYADSVKGRFTISRDNAKNTVYLQMNSLKPEDTAVYYCNAVVLHVTTDNSTFTTDDYWGQGTQVTVSS,low polyreactivity
17,QVQLVESGGGLVQAGGSLRLSCAASGRIFTSYAMGWYRQAPGKERELVAAINRGGSTYYADSVKGRFTISRDNAKNTVYLQMNSLKPEDTAVYYCAAGTRSRAPYYRTIVDTYGYWGQGTQVTVSS,low polyreactivity
18,QVQLVESGGGLVQAGGSLRLSCAASGRIFTSYAMGWYRQAPGKERELVAAISGSSASTYYADSVKGRFTISRDNAKNTVYLQMNSLKPEDTAVYYCAAYKYDYRVDTGYDYWGQGTQVTVSS,low polyreactivity
19,QVQLVESGGGLVQAGGSLRLSCAASGRIFTTYAMGWYRQAPGKERELVAAISRSGGSTYYADSVKGRFTISRDNAKNSVYLQMNSLKPEDTAVYYCAAVPTSNSFRSSFYYWGQGTQVTVSS,high polyreactivity
20,QVQLVESGGGLVQAGGSLRLSCAASGRIFTTYAMGWYRQAPGKERELVARISSGGTTYYADSVKGRFTISRDNAKNTVYLQMNSLKPEDTAVYYCNVRAVTPTRSRPFRYDYWGQGTQVTVSS,high polyreactivity
21,QVQLVESGGGLVQAGGSLRLSCAASGRIFTWNAMGWYRQAPGKERDLVARISSGTRTNYADSVKGRFTISRDNAKNTVYLQMNSLKPEDTAVYYCAAQSRPPFVKQYWWQRDYWGQGTQVTVSS,high polyreactivity
22,QVQLVESGGGLVQAGGSLRLSCAASGRIFTWNAMGWYRQAPGKERELVATINRGGNTNYADSVKGRFTISRDNAKNTVYLQMNSLKPEDTAVYYCAARYHYSNLYRFAYGYWGQGTQVTVSS,high polyreactivity

row,Sequence,polyreactivity (PSR sort gate)
1,QVQLVESGGGLVQAGGSLRLSCAASGRIFTYMGWYRQAPGKERELVAGISWRGTSTYYADSVKGRFTISRDNAKNTVYLQMNSLKPEDTAVYYCAAPWAYHVRGDYWGQGTQVTVSS,low polyreactivity
2,QVQLVESGGGLVQAGGSLRLSCAASGRIFTYNAMGWYRQAPGKERELVAVITSGGSTYYADSVKGRFTISRDNAKNTVYLQMNSLKPEDTAVYYCAARVWGSSQYYYWGQGTQVTVSS,low polyreactivity
3,QVQLVESGGGLVQAGGSLRLSCAASGRIFTYYAMGWYRQAPGKERELVAAITWSGTGTYYADSVKGRFTISRDNAKNTVYLQMNSLKPEDTAVYYCNRRHALASSYYYWGQGTQVTVSS,low polyreactivity
4,QVQLVESGGGLVQAGGSLRLSCAASGRIFTYYAMGWYRQAPGKERELVASITGSGGSTDYADSVKGRFTISRDNAKNTVYLQMNSLKPEDTAVYYCAADHSGVSRYDYWGQGTQVTVSS,low polyreactivity
5,QVQLVESGGGLVQAGGSLRLSCAASGRIFVANGLGWYRQAPGKERELVAAITWSGDNTYYADSVKGRFTISRDNAKNTVYLQMNSLKPEDTAVYYCATPRSWYFPYGYWGQGTQVTVSS,high polyreactivity
6,QVQLVESGGGLVQAGGSLRLSCAASGRIFVAYTMGWYRQAPGKERELVAAISTNGGRTYYADSVKGRFTISRDNAKNTVYLQMNSLKPEDTAVYYCAAYRGPRADYYWGQGTQVTVSS,high polyreactivity
7,QVQLVESGGGLVQAGGSLRLSCAASGRIFVDNTMGWYRQAPGKEREFVAVISTSGGRTSYADSVKGRFTISRDNAKNTVYLQMNSLKPEDTAVYYCNALYGRYGWSKNYYWGQGTQVTVSS,high polyreactivity
8,QVQLVESGGGLVQAGGSLRLSCAASGRIFVDYAMGWERQAPGKERELVAAITYGGGSTHYADSVKGRFTISRDNAKNTVYLQMNSLKPEDTAVYYCAADLFYHSYGYEYWGQGTQGTVSS,low polyreactivity
9,QVQLVESGGGLVQAGGSLRLSCAASGRIFVENAMGWYRQAPRKERELVAAITSRGGSTYYADSVKGRFTISRDNAKNTVYLQMNSLKPEDTAVYYCNAGKYSRFLYDHNYWGQGTQVTVSS,high polyreactivity
10,QVQLVESGGGLVQAGGSLRLSCAASGRIFVFNAMGWYRQAPGKERELVATIDRGGSTNYADSVKGRFTISRDNAKNTVYLQMNSLKPEDTAVYYCAAGVVGKRSRTGYYWGQGTQVTVSS,low polyreactivity
11,QVQLVESGGGLVQAGGSLRLSCAASGRIFVFYVMGWYRQAPGKERELVAAITRTGGSTYYADSVKGRFTISRDNAKNTVYLQMNSLKPEDTAVYYCATRYTRLRHFDYWGQGTQVTVSS,low polyreactivity
12,QVQLVESGGGLVQAGGSLRLSCAASGRIFVGNAMGWYRQAPGKEWALVAANSGSGDSTYYADSVKGRFTISRDNAKNTVYLQMISLKPEDTAVYYCNVDYDFVIYYYWYYPGYDYWGQGTQVTVSS,low polyreactivity
13,QVQLVESGGGLVQAGGSLRLSCAASGRIFVGYAMVWYRQAPGKERELVAGISRSGDSTYYADSVKGRFTISRDNAKNTVYLQMNSLKPEDTAVYYCAARIIYWGYYYWGQGTQVTVSS,high polyreactivity
14,QVQLVESGGGLVQAGGSLRLSCAASGRIFVHYVMGWYRQAPGKERELVAAISRSGGRTYYADSVKGRFTISRDNAKNTVYLQMNSLKPEDTAVYYCATDASTYKYDYWGQGTQVTVSS,high polyreactivity
15,QVQLVESGGGLVQAGGSLRLSCAASGRIFVIYAKGWYRQAPGKERELVAVISSDGSTYYADSVKGRFTISRDNAKNTVYLQMNSLKPEDTAVYYCAADRIGRYRPYIGWVVRSYYWGQGTQVTVSS,low polyreactivity
16,QVQLVESGGGLVQAGGSLRLSCAASGRIFVIYAMGWYRQAPGKERELVAVINDDGSTNYADSVKGRFTISRDNAKNTVYLQMNSLKPEDSAVYYCNAVYYSYRYGHDYWGQGTQVTVSS,low polyreactivity
17,QVQLVESGGGLVQAGGSLRLSCAASGRIFVKNAMGWNRQAPGKESELVAAISASGGSTYYADSVKGRFTISRDNAKNTVDLQMNSLKPEDTAVYYCAARRRAFGSTYNYWGQGTQVTVSS,high polyreactivity
18,QVQLVESGGGLVQAGGSLRLSCAASGRIFVKNAMGWYIQAPGKERELVAAISASGGSTYYADSVKGRFTISRDYSKNTVYLQMNSLKPEYTAVYYCARVLRRRYLSEFDYWGQGTQVTVSS,high polyreactivity
19,QVQLVESGGGLVQAGGSLRLSCAASGRIFVKNAMGWYRQAPGKERELVATISSGGNTNYADSVKGRFTISRDNAKNTVYLQLNSLKPEDTAVYYCAAVWDLGDYELPYDYWGQGTQVTVSS,low polyreactivity
20,QVQLVESGGGLVQAGGSLRLSCAASGRIFVKNTMGLYRQAPGKERELVAAISWYGGSTYYADSVKGRFTISRDNAMNTVYLQMNSLKPEDTAFYYCAAATWQWPWYDYWGQGTKVTVSS,high polyreactivity
21,QVQLVESGGGLVQAGGSLRLSCAASGRIFVKYVIGWYRQAPGKERELVAAISSSGGRTYYADSVKGRFTISRDNAKNTVYLQMNSLKPEDTAVYYCAASFRRIYVSGLGGPFDYWGQGTQVNVSS,high polyreactivity
